From patent US20230303994 come the findings set out here.

B1: trypsin variant SEQ ID NO: 103 (protein)
chain: IVGGYTCAANSIPYQVSLNSGSHRCGGSLINSQWVVSAAHCYKPRIQVRLGEHNIHVLEGNEQFINAAKIITHPNFNPNTLDNDIMLIKLSSPATLNSHVATVSLPTSCAAAGTECLISGWGNTSSSGSSMPSLLQCLKAPVLSDSSCKSSYPGQITGNMICVGFLEGGADSCQGDSGGPVVCNGQLQGIVSSGYGCAQKNKPGVYTKVCNYVNWIQQTIAAN
Consider B1, for which, in the data set with pre-pro-human insulin, the “Activity PPI cleavage” value is “yes” and the Selectivity was greater than 90%. Further, in the data set with pre-pro-insulin glargine, the Purity Insulin Glargine is 90.7 area %, the Yield was greater than 90%, the desArg is 0.9 area % and the desThr was determined as 1.4 area %.

B2: trypsin variant SEQ ID NO: 104 (protein)
chain: IVGGYTCAANSIPYQVSLNSGSHRCGGSLINSQWVVSAAHCYKSRIQVRLGEHNIHVLEGNEQFINAAKIITHPNFNPNTLDNDIMLIKLSSPATLNSNVATVSLPTSCAAAGTECLISGWGNTCSSGSSMPSLLQCLKAPVLSDSSCKSSYPGQITGNMICVGFLEGGADACQGDSGGPVVCNGQLQGIVSSGYGCAQKNKPGVYTKVCNYVNWIQQTIAAN
With B2, in the data set with pre-pro-human insulin, the “Activity PPI cleavage” value is on record as “yes” and the Selectivity is greater than 90%. In the data set with pre-pro-insulin glargine, this protein displayed a Purity Insulin Glargine of 89.3 area %, a Yield greater than 90%, a desArg of 1.1 area % and a desThr of 1 area %.

B3: porcine trypsin variant no. 105 (SEQ ID NO: 105) (protein)
chain: IVGGYTCAANSIPYQVSLNSGSHRCGGSLINSQWVVSAAHCYKSRIQVRLGEHNIHVLEGNEQFINAAKIITHPNFNPNTLDNDIMLIKLSSPATLNSNVATVSLPTSCAAAGTECLISGWGNTASSGSSYPSLLQCLKAPVLSDSSCKSSYPGQITGNMICVGFLEGGADACQGDSGGPVVCNGQLQGIVSSGYGCAQKNKPGVYTKVCNYVNWIQQTIAAN
For B3, in the data set with pre-pro-human insulin, the “Activity PPI cleavage” value is reported as “yes” and the Selectivity is greater than 90%. In the data set with pre-pro-insulin glargine, the Purity Insulin Glargine worked out at 88.9 area %, the Yield was greater than 90%, the desArg worked out at 1 area % and the desThr amounted to 0.9 area %.

B4: trypsin variant SEQ ID NO: 118 (protein)
chain: IVGGYTCAANSIPYQVSLNSGSHRCGGSLINSQWVVSAAHCYKPRIQVRLGEHNIHVLEGNEQFINAAKIITHPNFNGNTLDNDIMLIKLSSPATLNSHVATVSLPTSCAAAGTECLISGWGNTASSGSSMPSLLQCLKAPVLSDSSCKSSYPGQITGNMICVGFLEGGADACQGDSGGPVVCNGQLQGIVSSGYGCAQKNKPGVYTKVCNYVNWIQQTIAAN
For B4, in the data set with pre-pro-human insulin, the “Activity PPI cleavage” value is “yes” and the Selectivity is on record as greater than 90%. In the data set with pre-pro-insulin glargine, this protein came in with a Purity Insulin Glargine of 87.6 area %, a Yield greater than 90%, a desArg of 0.6 area % and a desThr of 1 area %.

B5: trypsin variant SEQ ID NO: 113 (protein)
chain: IVGGYTCAANSIPYQVSLNSGSHRCGGSLINSQWVVSAAHCYKPRIQVRLGEHNIHVLEGNEQFINAAKIITHPNFNGNTLDNDIMLIKLSSPATLNSAVATVSLPTSCAAAGTECLISGWGNTASSGSSYPSLLQCLKAPVLSDSSCKSSYPGQITGNMICVGFLEGGADACQGDSGGPVVCNGQLQGIVSSGYGCAQKNKPGVYTKVCNYVNWIQQTIAAN
Take B5: in the data set with pre-pro-human insulin, the “Activity PPI cleavage” value was “yes” and the Selectivity was greater than 90%. In the data set with pre-pro-insulin glargine, this protein gave a Purity Insulin Glargine of 86.1 area %, a Yield greater than 90%, a desArg of 0.5 area % and a desThr of 1.7 area %.

B6: trypsin variant SEQ ID NO: 116 (protein)
chain: IVGGYTCAANSIPYQVSLNSGSHRCGGSLINSQWVVSAAHCYKPRIQVRLGEHNIHVLEGNEQFINAAKIITHPNFNGNTLDNDIMLIKLSSPATLNSNVATVSLPTSCAAAGTECLISGWGNTSSSGSSMPSLLQCLKAPVLSDSSCKSSYPGQITGNMICVGFLEGGADACQGDSGGPVVCNGQLQGIVSSGYGCAQKNKPGVYTKVCNYVNWIQQTIAAN
B6: in the data set with pre-pro-human insulin, the “Activity PPI cleavage” value is on record as “yes” and the Selectivity was greater than 90%. In the data set with pre-pro-insulin glargine, this protein had a Purity Insulin Glargine of 82.7 area %, a Yield greater than 90%, a desArg of 0.5 area % and a desThr of 0.6 area %.

B7: trypsin variant SEQ ID NO: 111 (protein)
chain: IVGGYTCAANSIPYQVSLNSGSHRCGGSLINSQWVVSAAHCYKPRIQVRLGEHNIHVLEGNEQFINAAKIITHPNFNPNTLDNDIMLIKLSSPATLNSHVATVSLPTSCAAAGTECLISGWGNTSSSGSSYPSLLQCLKAPVLSDSSCKSSYPGQITGNMICVGFLEGGADACQGDSGGPVVCNGQLQGIVSSGYGCAQKNKPGVYTKVCNYVNWIQQTIAAN
Turning to B7, in the data set with pre-pro-human insulin, the “Activity PPI cleavage” value is listed as “yes” and the Selectivity is listed as greater than 80%. Moreover, in the data set with pre-pro-insulin glargine, the Purity Insulin Glargine was found to be 85.9 area %, the Yield was greater than 90%, the desArg worked out at 0.7 area % and the desThr came to 2.6 area %.

B8: trypsin variant SEQ ID NO: 107 (protein)
chain: IVGGYTCAANSIPYQVSLNSGSHRCGGSLINSQWVVSAAHCYKPRIQVRLGEHNIHVLEGNEQFINAAKIITHPNFNPNTLDNDIMLIKLSSPATLNSHVATVSLPTSCAAAGTECLISGWGNTCSSGSSMPSLLQCLKAPVLSDSSCKSSYPGQITGNMICVGFLEGGADACQGDSGGPVVCNGQLQGIVSSGYGCAQKNKPGVYTKVCNYVNWIQQTIAAN
For the protein B8, in the data set with pre-pro-human insulin, the “Activity PPI cleavage” value was “yes” and the Selectivity is greater than 90%. In addition, in the data set with pre-pro-insulin glargine, the Purity Insulin Glargine amounted to 88.1 area %, the Yield was greater than 90%, the desArg was 0.4 area % and the desThr was determined as 1.3 area %.

B9: trypsin variant SEQ ID NO: 106 (protein)
chain: IVGGYTCAANSIPYQVSLNSGSHRCGGSLINSQWVVSAAHCYKSRIQVRLGEHNIHVLEGNEQFINAAKIITHPNFNPNTLDNDIMLIKLSSPATLNSAVATVSLPTSCAAAGTECLISGWGNTCSSGSSMPSLLQCLKAPVLSDSSCKSSYPGQITGNMICVGFLEGGADACQGDSGGPVVCNGQLQGIVSSGYGCAQKNKPGVYTKVCNYVNWIQQTIAAN
For B9, in the data set with pre-pro-human insulin, the “Activity PPI cleavage” value was “yes” and the Selectivity is recorded as greater than 90%. Besides, in the data set with pre-pro-insulin glargine, the Purity Insulin Glargine amounted to 86.8 area %, the Yield is greater than 90%, the desArg worked out at 0.7 area % and the desThr was 1 area %.

B10: trypsin variant SEQ ID NO: 109 (protein)
chain: IVGGYTCAANSIPYQVSLNSGSHRCGGSLINSQWVVSAAHCYKSRIQVRLGEHNIHVLEGNEQFINAAKIITHPNFNGNTLDNDIMLIKLSSPATLNSNVATVSLPTSCAAAGTECLISGWGNTCSSGSSMPSLLQCLKAPVLSDSSCKSSYPGQITGNMICVGFLEGGADACQGDSGGPVVCNGQLQGIVSSGYGCAQKNKPGVYTKVCNYVNWIQQTIAAN
On to B10, for which, in the data set with pre-pro-human insulin, the “Activity PPI cleavage” value is “yes” and the Selectivity is greater than 90%. Further, in the data set with pre-pro-insulin glargine, the Purity Insulin Glargine turned out to be 85.9 area %, the Yield was greater than 80%, the desArg was 0.7 area % and the desThr was found to be 0.5 area %.

B11: trypsin variant SEQ ID NO: 119 (protein)
chain: IVGGYTCAANSIPYQVSLNSGSHRCGGSLINSQWVVSAAHCYKPRIQVRLGEHNIHVLEGNEQFINAAKIITHPNFNGNTLDNDIMLIKLSSPATLNSAVATVSLPTSCAAAGTECLISGWGNTASSGSSMPSLLQCLKAPVLSDSSCKSSYPGQITGNMICVGFLEGGKDACQGDSGGPVVCNGQLQGIVSSGYGCAQKNKPGVYTKVCNYVNWIQQTIAAN
As for B11, in the data set with pre-pro-human insulin, the “Activity PPI cleavage” value is recorded as “yes” and the Selectivity is given as greater than 90%. Also, in the data set with pre-pro-insulin glargine, the Purity Insulin Glargine came out at 85.2 area %, the Yield was greater than 90%, the desArg amounted to 0.6 area % and the desThr was found to be 1 area %.

B12: trypsin variant SEQ ID NO: 117 (protein)
chain: IVGGYTCAANSIPYQVSLNSGSHRCGGSLINSQWVVSAAHCYKPRIQVRLGEHNIHVLEGNEQFINAAKIITHPNFNGNTLDNDIMLIKLSSPATLNSNVATVSLPTSCAAAGTECLISGWGNTASSGSSMPSLLQCLKAPVLSDSSCKSSYPGQITGNMICVGFLEGGKDACQGDSGGPVVCNGQLQGIVSSGYGCAQKNKPGVYTKVCNYVNWIQQTIAAN
With B12, in the data set with pre-pro-human insulin, the “Activity PPI cleavage” value is recorded as “yes” and the Selectivity is listed as greater than 90%. For the same protein, in the data set with pre-pro-insulin glargine, the Purity Insulin Glargine came out at 85 area %, the Yield was greater than 90%, the desArg was 0.6 area % and the desThr was determined as 0.8 area %.

B13: trypsin variant SEQ ID NO: 110 (protein)
chain: IVGGYTCAANSIPYQVSLNSGSHRCGGSLINSQWVVSAAHCYKSRIQVRLGEHNIHVLEGNEQFINAAKIITHPNFNPNTLDNDIMLIKLSSPATLNSHVATVSLPRSCAAAGTECLISGWGNTCSSGSSMPSLLQCLKAPVLSDSSCKSSYPGQITGNMICVGFLEGGADACQGDSGGPVVCNGQLQGIVSSGYGCAQKNKPGVYTKVCNYVNWIQQTIAAN
With B13, in the data set with pre-pro-human insulin, the “Activity PPI cleavage” value is recorded as “yes” and the Selectivity was greater than 90%. Further, in the data set with pre-pro-insulin glargine, the Purity Insulin Glargine is 90.6 area %, the Yield was greater than 90%, the desArg amounted to 0.9 area % and the desThr was determined as 0.6 area %.

B14: trypsin variant SEQ ID NO: 108 (protein)
chain: IVGGYTCAANSIPYQVSLNSGSHRCGGSLINSQWVVSAAHCYKPRIQVRLGEHNIDVLEGNEQFINAAKIITHPNFNPNTLDNDIMLIKLSSPATLNSAVATVSLPTSCAAAGTECLISGWGNTCSSGSSMPSLLQCLKAPVLSDSSCKSSYPGQITGNMICVGFLEGGADACQGDSGGPVVCNGQLQGIVSSGYGCAQKNKPGVYTKVCNYVNWIQQTIAAN
Regarding B14, in the data set with pre-pro-human insulin, the “Activity PPI cleavage” value is given as “yes” and the Selectivity is greater than 80%. In the data set with pre-pro-insulin glargine, this protein returned a Purity Insulin Glargine of 88.8 area %, a Yield greater than 90%, a desArg of 0.8 area % and a desThr of 0.7 area %.

B15: trypsin variant SEQ ID NO: 115 (protein)
chain: IVGGYTCAANSIPYQVSLNSGSHRCGGSLINSQWVVSAAHCYKPRIQVRLGEHNIHVLEGNEQFINAAKIITHPNFNGNTLDNDIMLIKLSSPATLNSNVATVSLPTSCAAAGTECLISGWGNTSSSGSSMPSLLQCLKAPVLSDSSCKSSYPGQITGNMICVGFLEGGKDACQGDSGGPVVCNGQLQGIVSSGYGCAQKNKPGVYTKVCNYVNWIQQTIAAN
Turning to B15, in the data set with pre-pro-human insulin, the “Activity PPI cleavage” value is “yes” and the Selectivity was greater than 90%. In the data set with pre-pro-insulin glargine, this protein registered a Purity Insulin Glargine of 83.5 area %, a Yield greater than 90%, a desArg of 0.8 area % and a desThr of 0.6 area %.
